The source of these data is patent US20250147051A1, “METHOD FOR DETECTING A TAU PROTEIN IN A SALIVA SAMPLE” (GTINVENT LIMITED, priority 2022, published 2025).

The target in assay [1] is full length human tau protein 2N4R (hT40) (human) (UniProt P10636). As to the kind of experiment: Simoa 3-step sandwich, BT2 capture beads, biotinylated HT7 detector, recombinant hTau40 standard curve; sixth of 8 cells of a shifted row.
For assay [2] the target is unchanged. Description: Simoa 3-step sandwich, S1D12 capture beads, biotinylated HT7 detector, recombinant hTau40 standard curve; fourth of 8 cells of a shifted row.
For assay [3] the target is unchanged. As to the kind of experiment: Simoa 3-step sandwich, S1D12 capture beads, biotinylated Tau46 detector, recombinant hTau40 standard curve; seventh of 8 cells of a shifted row.
Assay [4] shares this target. As to the kind of experiment: Simoa 3-step sandwich, S1D12 capture beads, biotinylated BT2 detector, recombinant hTau40 standard curve; fifth of 8 cells of a shifted row.
Assay [5] has the same target. Description: Simoa, Tau12 on beads, biotinylated HT7 detector.
Assay [6] shares this target. Description: Simoa 3-step sandwich, S1D12 capture beads, biotinylated Tau12 detector, recombinant hTau40 standard curve; third of 8 cells of a shifted row.
For assay [7] the target is unchanged. As to the kind of experiment: Simoa 3-step sandwich, BT2 capture beads, biotinylated Tau12 detector, recombinant hTau40 standard curve; first of 8 cells of a shifted row, read in the order of the assay heads.

full length human tau protein 2N4R (hT40) (human), sequence (P10636 other isoform, or with tags, fused parts or gaps limits assumed): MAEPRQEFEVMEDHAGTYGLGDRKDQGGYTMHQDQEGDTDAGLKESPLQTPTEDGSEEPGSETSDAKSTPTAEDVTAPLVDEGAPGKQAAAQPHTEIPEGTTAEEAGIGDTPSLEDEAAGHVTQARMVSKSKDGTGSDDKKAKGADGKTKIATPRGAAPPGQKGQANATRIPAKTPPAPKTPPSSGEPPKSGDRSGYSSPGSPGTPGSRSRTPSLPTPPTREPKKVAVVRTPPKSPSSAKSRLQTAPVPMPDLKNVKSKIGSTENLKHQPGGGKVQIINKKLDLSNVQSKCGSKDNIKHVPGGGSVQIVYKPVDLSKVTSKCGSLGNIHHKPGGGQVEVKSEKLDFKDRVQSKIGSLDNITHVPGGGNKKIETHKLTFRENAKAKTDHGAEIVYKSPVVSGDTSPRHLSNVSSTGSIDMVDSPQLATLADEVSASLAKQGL

As for HT7 (antibody), the Assay limit of detection in assay [1] and in assay [2] was 0.25 pg/mL in each case.
Tau46 (antibody): the Assay limit of detection in assay [3] was 2.2 pg/mL.
Regarding BT2 (antibody), the Assay limit of detection in assay [4] is 10.8 pg/mL.
As for Tau12 mAb (antibody), the Simoa limit of detection in assay [5] was determined as 2.2 pg/mL. For the same substance, the Assay limit of detection in assay [6] and in assay [7] was 0.25 pg/mL each time.
